Blank lines part the entries; values can stand above or below the binder they belong to.
What was measured:
[1] = target: huNABA-avi-his (hybrid protein N-A1-B3-A2: N and A1 domains of human BGP, B3 domain of human CEA, A2 domain of BGP, with precision protease site, avi tag and (His)6 tag), biotinylated (human); assay: Biacore on immobilized NABA-avi-his; Bivalent Affinity
[2] = target: T1, huNABA-avi-his (hybrid protein N-A1-B3-A2: N and A1 domains of human BGP, B3 domain of human CEA, A2 domain … (human, biotinylated at the avi tag (in vivo, co-transfected biotin ligase))); assay: Biacore, Fab on immobilized NABA-avi-his; column Monovalent Affinity
T1 construct: also called NABA-avi-his reagent; biotinylated NABA
T1 chain: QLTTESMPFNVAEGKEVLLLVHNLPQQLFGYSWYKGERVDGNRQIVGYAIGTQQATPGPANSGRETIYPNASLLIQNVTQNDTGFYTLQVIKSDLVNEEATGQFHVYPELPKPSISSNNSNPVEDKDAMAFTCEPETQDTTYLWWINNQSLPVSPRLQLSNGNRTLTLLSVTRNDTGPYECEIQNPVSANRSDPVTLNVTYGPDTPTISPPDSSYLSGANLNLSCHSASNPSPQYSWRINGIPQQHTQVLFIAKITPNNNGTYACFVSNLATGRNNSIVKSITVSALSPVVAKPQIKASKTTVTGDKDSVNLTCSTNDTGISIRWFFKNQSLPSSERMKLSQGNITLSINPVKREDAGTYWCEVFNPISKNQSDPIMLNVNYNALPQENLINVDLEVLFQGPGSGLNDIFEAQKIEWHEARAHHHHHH

[3] = target: T1, huNABA-avi-his (hybrid protein …); assay: Biacore, column Affinity, CDR-H3 rows; antigen not named on the sheet, NABA-avi-his per paragraph 230
[4] = target: T1, huNABA-avi-his (hybrid protein …); assay: Biacore, column Affinity, CDR-H1 and CDR-H2 rows; antigen not named on the sheet, NABA-avi-his per paragraph 230
[5] = target: T1, huNABA-avi-his (hybrid protein …); assay: as above
[6] = target: T1, huNABA-avi-his (hybrid protein …); assay: Biacore, column Affinity, CDR-L1 and CDR-L2 rows; antigen not named on the sheet, NABA-avi-his per paragraph 230
[7] = target: T2, human carcinoembryonic antigen (CEA), membrane-bound on cells (human, UniProt P06731 35-685); assay: flow cytometry on MKN45 cells, IgG1/kappa
T2 construct: whole, on cells; also called CEACAM-5; CD66e
T2 sequence (looked up): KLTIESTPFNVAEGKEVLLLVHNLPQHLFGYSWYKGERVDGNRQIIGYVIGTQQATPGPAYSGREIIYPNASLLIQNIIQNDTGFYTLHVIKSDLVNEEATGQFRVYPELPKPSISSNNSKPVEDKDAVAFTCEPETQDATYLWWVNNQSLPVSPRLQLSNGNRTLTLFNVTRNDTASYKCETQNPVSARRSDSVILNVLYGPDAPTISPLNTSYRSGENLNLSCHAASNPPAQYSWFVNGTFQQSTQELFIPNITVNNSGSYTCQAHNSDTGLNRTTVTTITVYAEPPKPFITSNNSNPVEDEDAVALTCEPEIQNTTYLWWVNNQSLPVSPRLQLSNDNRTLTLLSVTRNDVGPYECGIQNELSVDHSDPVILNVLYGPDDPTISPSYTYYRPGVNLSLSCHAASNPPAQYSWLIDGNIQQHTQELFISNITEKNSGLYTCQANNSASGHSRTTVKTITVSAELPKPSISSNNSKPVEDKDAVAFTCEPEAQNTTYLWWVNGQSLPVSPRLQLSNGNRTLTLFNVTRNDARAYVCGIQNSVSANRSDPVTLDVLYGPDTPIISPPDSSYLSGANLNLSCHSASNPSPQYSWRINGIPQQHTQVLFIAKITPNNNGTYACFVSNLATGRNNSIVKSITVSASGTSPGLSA
Method: (§1) An affinity matured heavy chain variable region construct, CH7A rF9, and an affinity matured light chain variable region construct, CL1A rH11, were paired with the parent light chain variable region construct and the heavy chain variable region construct, respectively, and with each other. All antibodies were converted into human IgG1/kappa and binding to the CEA-positive cell-line MKN45 was measured by flow cytometry. […] The matured light chain shifts the EC50 values to lower numbers, whereas the matured heavy chains (rF9 in FIG. 6, and rB9 in FIG. 15) shift the total fluorescence signal intensity in a flow-cytometry measurement. […] The combination of these two chains increases the affinity even further.

[8] = target: T2, human carcinoembryonic antigen (CEA), …; assay: flow cytometry on MKN45 cells, IgG [upper panel]
Method: as §1

[9] = target: T1, huNABA-avi-his (hybrid protein …); assay: Biacore SPR, Fab; antigen not named on the sheet, NABA-avi-his per paragraph 230
[10] = target: T1, huNABA-avi-his (hybrid protein …); assay: Biacore, column Affinity, CDR-L1 and CDR-L2 rows (QNVGTN and PLI-YSASYRYS); antigen not named on the sheet, NABA-avi-his per paragraph 230
[11] = target: T2, human carcinoembryonic antigen (CEA), …; assay: flow cytometry on CEA positive MKN45 cells, IgG [lower panel]
Method: as §1

[12] = target: T1, huNABA-avi-his (hybrid protein …); assay: Biacore on immobilized NABA-avi-his; Bivalent Affinity
[13] = target: T2, human carcinoembryonic antigen (CEA), …; assay: FACS on MKN-45 cells
Method: CH1A1 includes the M69F/T71L double point mutation. The latter three variants have the entire frameworks 1, 2, or 3, respectively, replaced by the murine counterpart. […] In this assay, cell binding of the CH1A-based antibody variants to CEA-expressing MKN-45 cells was analyzed at various concentrations. The affinity-matured light chain 2F1 was identical for all antibodies tested except for the parental antibody where the original light chain CL1A was used. Mean fluorescence was determined by FACS analysis. […] The DLS assay was performed using 1 mg/ml of the antibodies in a buffer of 20 mM Histidine and 140 mM NaCl at pH 6.0. The assay was conducted starting at 25° C. with an incremental temperature increase of 0.05° C./min up to 70° C. All antibodies tested in this assay had 2F1 as the light chain

- Kd [2]: 402 nM
- koff [2]: 0.0021 s⁻¹
- kon [2]: 5220 M⁻¹ s⁻¹
- Kd [9]: 518 nM
- Kd [5]: 402 nM
- Kd [10]: 402 nM
B4: anti-CEA Fab with affinity matured heavy chain CH7A H4E9 and unmatured light chain CL1A (Fab, V domains shown)
VH: QVQLVQSGSELKKPGASVKVSCKASGYTFTEFGMNWVRQAPGQGLEWMGWINTKTGEATYIEEFKGRFVFSLDTSVSTAYLQISSLKAEDTAVYYCARWDFYDYVEAMDYWGQGTTVTVSS
VL: DIQMTQSPSSLSASVGDRVTITCKASQNVGTNVAWYQQKPGKAPKLLIYSASYRYSGVPSRFSGSGSGTDFTLTISSLQPEDFATYYCHQYYTYPLFTFGQGTKLEIK
notes: Fab format, bacterially expressed; also called CH7A H4E9 + CL1A

- EC50 (read off the curve) [7]: ~0.6 µg/mL
- EC50 (read off the curve) [11]: ~0.6 µg/mL
- Kd [12]: 2 nM
- koff [12]: 0.000552 s⁻¹
- kon [12]: 282000 M⁻¹ s⁻¹
B5: humanized PR1A3 antibody comprising heavy chain variable region construct CH7A and light chain variable region construct CL1A (antibody, human IgG1, V domains shown)
VH: QVQLVQSGSELKKPGASVKVSCKASGYTFTEFGMNWVRQAPGQGLEWMGWINTKTGEATYVEEFKGRFVFSLDTSVSTAYLQISSLKAEDTAVYYCARWDFYDYVEAMDYWGQGTTVTVSS
VL: DIQMTQSPSSLSASVGDRVTITCKASQNVGTNVAWYQQKPGKAPKLLIYSASYRYSGVPSRFSGSGSGTDFTLTISSLQPEDFATYYCHQYYTYPLFTFGQGTKLEIK
notes: also called CH7A CL1A; CH7A, CL1A

- EC50 (read off the curve) [11]: ~0.5 µg/mL
B6: antibody with affinity matured heavy chain variable region CH7A rB9 and affinity matured light chain variable region CL1A rH11 G2(1) (antibody, V domains shown)
VH: QVQLVQSGSELKKPGASVKVSCKASGYTFTEFGMNWVRQAPGQGLEWMGWINTKSGEATYVEEFKGRFVFSLDTSVSTAYLQISSLKAEDTAVYYCARWDFYDYVEAMDYWGQGTTVTVSS
VL: DIQMTQSPSSLSASVGDRVTITCKASQTVSANVAWYQQKPGKAPKLLIYLASYRYRGVPSRFSGSGSGTDFTLTISSLQPEDFATYYCHQYYTYPLFTFGQGTKLEIK
notes: also called CH7A rB9, CL1A rH11 G2(1); CH7ArB9, CL1A rH11G2(1)

- EC50 (read off the curve) [8]: ~0.7 µg/mL
B7: antibody with heavy chain variable region CH7A and affinity matured light chain variable region CL1A rH7 (antibody, V domains shown)
VH: QVQLVQSGSELKKPGASVKVSCKASGYTFTEFGMNWVRQAPGQGLEWMGWINTKTGEATYVEEFKGRFVFSLDTSVSTAYLQISSLKAEDTAVYYCARWDFYDYVEAMDYWGQGTTVTVSS
VL: DIQMTQSPSSLSASVGDRVTITCKASQKVLTNVAWYQQKPGKAPKLLIYLASYRYSGVPSRFSGSGSGTDFTLTISSLQPEDFATYYCHQYYTYPLFTFGQGTKLEIK
notes: also called CH7A, CL1ArH7

- EC50 (read off the curve) [13]: ~0.8 µg/mL
B8: anti-CEA antibody with heavy chain CH1A4 and light chain 2F1 (antibody, V domains shown)
VH: QVQLVQSGAEVKKPGASVKVSCKASGYTFTEFGMNWVRQAPGQGLEWMGWINTKTGEATYVEEFKGRFAFSLETSATTAYLQINNLKNEDTAKYFCARWDFYDYVEAMDYWGQGTTVTVSS
VL: DIQMTQSPSSLSASVGDRVTITCKASAAVGTYVAWYQQKPGKAPKLLIYSASYRKRGVPSRFSGSGSGTDFTLTISSLQPEDFATYYCHQYYTYPLFTFGQGTKLEIKR

More lines, now with the values behind:

B1: H3 Full (5) 19 (Fab, V domains shown)
VH: QVQLVQSGSELKKPGASVKVSCKASGYTFTEFGMSWVRQAPGQGLEWMGWINTKTGEATYVEEFKGRFVFSLDTSVSTAYLQISSLKAEDTAVYYCARWDAFEYVKALDYWGQGTTVTVSS
VL: DIQMTQSPSSLSASVGDRVTITCKASQNVGTNVAWYQQKPGKAPKLLIYSASYRYSGVPSRFSGSGSGTDFTLTISSLQPEDFATYYCHQYYTYPLFTFGQGTKLEIK
- Kd [1]: 0.19 nM
- koff [1]: 0.000175 s⁻¹
- kon [1]: 902000 M⁻¹ s⁻¹
- Kd [2]: 24 nM
- koff [2]: 0.0013 s⁻¹
- kon [2]: 54200 M⁻¹ s⁻¹
- Kd [3]: 26 nM
- Kd [4]: 26 nM

B2: PR1A3 (Fab, V domains shown)
VH: QVQLVQSGSELKKPGASVKVSCKASGYTFTEFGMNWVRQAPGQGLEWMGWINTKTGEATYVEEFKGRFVFSLDTSVSTAYLQISSLKAEDTAVYYCARWDFYDYVEAMDYWGQGTTVTVSS
VL: DIQMTQSPSSLSASVGDRVTITCKASQNVGTNVAWYQQKPGKAPKLLIYSASYRYSGVPSRFSGSGSGTDFTLTISSLQPEDFATYYCHQYYTYPLFTFGQGTKLEIK
notes: also called PR1A3 wt/wt; pMS22
- Kd [2]: 3680 nM
- koff [2]: 0.0248 s⁻¹
- kon [2]: 6740 M⁻¹ s⁻¹
- Kd [3]: 3680 nM
- Kd [5]: 3680 nM
- Kd [6]: 3.68 µM

B3: antibody with parent heavy chain variable region CH7A and affinity matured light chain variable region CL1A rH11 (antibody, V domains shown)
VH: QVQLVQSGSELKKPGASVKVSCKASGYTFTEFGMNWVRQAPGQGLEWMGWINTKTGEATYVEEFKGRFVFSLDTSVSTAYLQISSLKAEDTAVYYCARWDFYDYVEAMDYWGQGTTVTVSS
VL: DIQMTQSPSSLSASVGDRVTITCKASQTVSANVAWYQQKPGKAPKLLIYLASYRYRGVPSRFSGSGSGTDFTLTISSLQPEDFATYYCHQYYTYPLFTFGQGTKLEIK
notes: The suffix G2(1) is not explained; also called CH7A, CL1ArH11; CH7A, CL1A rH11 G2(1)
- EC50 (read off the curve) [7]: ~0.3 µg/mL
- EC50 (read off the curve) [8]: ~0.5 µg/mL

— patent publication US20230365711A1 (Hoffmann-La Roche, published 2023)
